Consider 18 sequences from the DeepSol protein solubility set.

The series in a line: soluble on expression in E. coli; label from the status in PepcDB or PDB records.
On to “MGSDKIHHHHHHMYVGTQVAARDDEDFKVWAQLGVKNISADPPGKPASWVLDDFERLRDKVESFGLVLDMVQLPLPSRPIEQASYPDILLAGPERDRQIDAVCTMIENIAKAGIPAAKYNLNLIGIPRTEMELGRGGSLNEAWRWDKADHNADPGLAGVLSEDENWERIDYFLERVVPVAASNKVRLACHPHDPYTPPGYKGVTRVLGTIEGLKKFVQMRENPYHGLNFCQGSIGEMLDNPREEIDDIIRWFGSRDKIFNVHFRNISGGKLSFMETFPDEGDMDMVRSLKLYHELGYRYMIMPDHVPTIAGRDPVGVAFGFCYGYIAALIEALDNKHL”, for which the “soluble on expression in E. coli” value is recorded as “not soluble”.
On to “SMFKYEEIVLERGNSGLGFSIAGGIDNPHVPDDPGIFITKIIPGGAAAMDGRLGVNDCVLRVNEVDVSEVVHSRAVEALKEAGPVVRLVVRRRQPPPEETSV”, for which the “soluble on expression in E. coli” value is on record as “soluble”.
In the case of “EYYDVRGWDPHDRQVYTPIHEACYDRGGIFFAFFDDEQMIAAAALDTLPRGMNGELRQLLFFYVGAGKRGQGWGRRLFQYALHQLPEMGASGLYISSIPNKNTVDFYLAQG” it was “not soluble”.
The value for “MGSDKIHHHHHHMALIRINFMAASLHRTVPLMVCLPTDKLVPDEQGVPRPIQGPFATLYLLHGILGSEVDWISGTRIQRWADERNLAVVMPAGENSFYTDHPWSGETYSQFIGQELIDFTRRTFPLSHQRDQTFIGGLSMGGYGALYNGLKFHDIFGAIVSLSAGLNVRPGMEKLPAKPQWFAETAAYQHGVFGPDLAAAGHSELNPQVLVTKLLAAHVALPAIFMAIGDQDGLKPANDEFDHFLTAKKVSHEYVVGSGAHEWDFWDRYLLKALNWLPLTNQGAGVNSGHIKAN” was “not soluble”; that for “MPCFFFILDTSGSMSTRAHPQFSFFDLAKNFIENFIKQRTKGDNRMMVGRETDKYFLMTTQARYPKNVKVACEKLGAVVIEEIKKLHLPYGSCQLHHAILEAFKVLHVSRVQTGIDGVGIGRLISNTEPVTMILLTDGSGVAGIPIDFRLFFDPPFLGSEMTRDAFRWDQKFYTVVFRIPSTPYRPTISQLTAIDIDMPVIERLCARTGGRSFSIVSPRQIQTTIDYLLAMGNQYKIGVRFECLPAIPAPITSDEVNLVKMKFKKVIDKRPVTNIISRLNPQARPVTCHWPIPESFFPMRTMDQLPQRTSHPVILCAPIALPLHIRPELPVDKLELEPGGISDIIMEILQGRKDMTVWTYMEGSSNGPTAPFGCLRMNTLGTGITLILMPFNFPMLYSLVEEIVKEPFLNKSQVWRSKLESYFHTVPFYYNTQIRVCLDKFDVKVDYSSSMSMFYPGQLLSNLNRFKAKAREELDQMAIASKLNDSKTLKIVNPSIRIERITSRSTIIGLGNSEVDIEDDSLEGYESTPIYAGDFKIPLYPPSITDAQLDSAYRTPYSSPIEDLTSKLNRIQANIELMFDPNKITLLDMAKLGTKARFNTLGLCFFHPIFLANSTSRKFYIQKFETLQVMDSAVVDNNSPSTSGQPKRFGGEGRQGGGPPKRRRGPLGIDAYDQYRIRRSMRGSSAGSDISDISSSLGTFDQDSDMTTPGTSGMNTPISEFDDLQLQEMDSDDQLMKNLDEVQALRKKEEAQVQPKIKKPPPVPPASILSSQEILTRKIRIGSIIRKPANHCAFEEIMTLVAGITQEACSQLIKYALRESQRFKLKQLTERLENRLKTV” was “not soluble”; that for “MGSDKIHHHHHHMQKYTSQKLDRLNWDDLRYFLEVARTQRASAAGKRLGVDHTTVARRVRELEAALGVILFDKSRADGFTLTSDGHRLLRHADAVETAVQSASEQFRGATQGLSGHVRIGSTEGFGCFFLSPQIARFTAAHRDVSIDILPVPHFVSLSKREADMAITLERPERGKYVFTRLCDYRLRLYGTRDYFLRHEPVRCIADLRHHAFIDYVADLAFSHELLYLNRTIPDVSSSLCSTSVIAQYFAALQGNALAILPCFMAAPNPMLVSILPDEVVVTRQFWLSSREDLRKLRRITVLWDYLRAATDANRPLLLGDSAELKYVQP” was “not soluble”.
As for “ILLVHGSGYGGWCWDATIRALAAHGARARALDLPGRIFTPGLSLADHAAAILQEIRAPVTLVGHSAGGFSIAAAAEAAAPGLIERLIFLCAYAPRDGASVASMRRAQARQPLRPAIRLAPDRLSYSFDPDLAGEALFHDCPPEVRAAALARMGAEPVGPQEERIRLSARYHALPKHYIRCLEDRAIPPETQEAMTADWPAGSVSTLPAGHSPFLSCPEALAKRLISVAAN”, the “soluble on expression in E. coli” value is listed as “not soluble”.
In the case of “MGSSHHHHHHSSGLVPRGSHMRLAGILLHVTSLPSPYGIGDLGKEAYRFLDFLKECGFSLWQVLPLNPTSLEAGNSPYSSNSLFAGNYVLIDPEELLEEDLIKERDLKRFPLGEALYEVVYEYKKELLEKAFKNFRRFELLEDFLKEHSYWLRDYALYMAIKEEEGKEWYEWDEELKRREKEALKRVLNKLKGRFYFHVFVQFVFFKQWEKLRRYARERGISIVGDLPMYPSYSSADVWTNPELFKLDGDLKPLFVAGVPPDFFSKTGQLWGNPVYNWEEHEKEGFRWWIRRVLHNLKLFDFLRLDHFRGFEAYWEVPYGEETAVNGRWVKAPGKTLFKKLLSYFPKNPFIAEDLGFITDEVRYLRETFKIPGSRVIEFAFYDKESEHLPHNVEENNVYYTSTHDLPPIRGWFENLGEESRKRLFEYLGREIKEEKVNEELIRLVLISRAKFAIIQMQDLLNLGNEARMNYPGRPFGNWRWRIKEDYTQKKEFIKKLLGIYGREV” it was “soluble”; in that of “MGSDKIHHHHHHMDCSKASTDTEKMICASSRLQQLDAVLNKAYQGYVKKADKAQARQEQRTWLAERDRCKDDVCLGNEMVSRIQALSGSENISVITQASGQWDFILSVATCNLDSSYSTCEGPGTLDIFKKGSGDLFQRITMENLFIELNNKGEVTANLVEVYGENNSGLVIDDANFDHHADIMLRNGNNGAYGGPSYDVYLFDVEKQQFTQNAPLTELASSNLGLFDIDEKSKTITTFTKSGCCWHQWSAYQMANNKPVLIVETTEAYSEEKQAMVATTRELVSGKWKVKEEIVKIDEQ”, “not soluble”.
In the case of “MGSDKIHHHHHHMNSLEQLRQAEQALLEIFSGIDAQVKQNLKRVLEAFRNQRVGAHHFAGVSGYGHDDLGRETLDKVFAEVMGAEAAAVRVQFVSGTHAIACALFGVLRPGDEMLAVVGSPYDTLEEVIGLRGQGQGSLIEFGIKYRQLELTSQGSIDWQTLSTSITDNTRLVLIQRSCGYSWRPSLSIADIEKVVNLVKQQNPDTVCFVDNCYGEFIETQEPTHVGADLMAGSLIKNPGGTIVTAGGYVAGRADLVEAAACRLTAPGIGSYGGATFDQNRLLFQGLFLSPQMVGEAMKGTHLTGYVFDKLGYPVNPAPLAPRGDVIQAIKLGSGKKLIAFCKAVQQNSPVGSYLDPVPDDMPGYESQVVMAGGTFIEGSTLEFSADGPLREPYVVYCQGGTHWSHVAIALEAAIDAVGEA” it was “not soluble”; in that of “MNQEYLDFELPIAELEAKIEALRAASDDKVDLTDEIKRLQKKSNELTKKTFANLDAWQVSRMARHPNRPYTLDYIEHIFTEFEELAGDRAFADDKAIVGGLARLDGRPVMVIGHQKGRSVKEKVQRNFGMPAPEGYRKALRLMEMAERFKLPIITFIDTPGAYPGIGAEERGQAEAIARNLREMAQLTVPVICTVIGEGGSGGALAIGVGDKVNMLQYSTYSVISPEGCASILWKSAEKASTAAEVMGLTASRLKELNLIDSIVQEPLGGAHRSYLEIAENLKLRLKEDLAELDELSKEELLNRRYERLMSYGYC”, “not soluble”; in that of “MSLSSARADRLRSHQTRVIGLILTDIANPFYTEIAAGTIDAARARGYEVFLAHTQEDPQTLRSIVDTMIARQVDGVVITVLHPDDGEVIRSLRSARIPLVQLSRRIQRVDADFVGIDDRAAASEMMEHVVTHGYQDIVTVVGPRTSSASAAREEGFIRTAEAHGIRTVSSQRISTYLSERGGYEAVEQVLARKSLPRVIVCGSDVIALGAISALRERSLNVPDDVAVTGFDGLYPGPLVELTTINQPRREMAEQSIELLTRRIEGAGGSYQSVLRAHQLRIGTTCGCPRMRPHLAAEGHHHHHH”, “not soluble”.
Consider “MHATSRVAWFWRPSCQSFIRKMPCRPIVLSGPSGGGKSTILTRAMQEYPNSFAFSVSHTTRQPRAGEEHGKHYYFTEKEKMQEMIKNNEFLEFATFSGNTYGTSKKTVLEIENSGKICVLDIELQGVRNIKNSHLDARYILIRAPSIKLLEERLRARGTETEESLSKRLQHASEDLVEIEKNPTLFDKVIVNDDLERAYKEFVDLLRDDLEKTSKK”, for which the “soluble on expression in E. coli” value was “not soluble”.
For “MSSEYIIGRNPVIEALRSGRDINKIWIAEGAAKGQVQIVLALAKENKIILQHAPKKKLDQLVEGNHQGVIAQVAAYQYAELEDLFKVAEKRNEDPFFLILDEIEDPHNLGSIMRTADATGAHGIIIPKRRAVGLTASVAKASTGAIEYIPVARVTNLSRTIDELKERGLWIAGTDAKGKTDYRNLDGKMPIGLVIGSEGKGMSRIIGEKCDFLITLPMVGKVTSLNASVAASLLMYEVYRKRNEIGK”, the “soluble on expression in E. coli” value is given as “soluble”.
In the case of “MKQTVLKNNLQNLLESAENILLLQGPVGDFFLRLADWLTANGKTVHKFNFNAGDDYFYPPTQAHTVVFNDNYDAFPEFLQEYITQHHIQAVVCFGDTRPYHVIAKRIANENQASFWAFEEGYFRPYYITLEKDGVNAFSPLPRRADFFLEQFPKLAQQEYKAPTPVHGGFTPMAKNAIRYYIELFRNPRKYPDYIHHRAPNAGHYLKPWSLSILKRLNYYIEDIQIAKRVEAGKYGKFFIVPLQVFNDSQVRIHCDFPSVRSFLLHVLSSFAEHAPADTNIIIKHHPMDRGFIDYWRDIKRFIKEHPELKGRVIYVHDVPLPVFLRHGLGMVTINSTSGLSGLIHNMPVKVLGRAYYDIPGITDQNTLAEFWNHPTPPDKELFHAYRMYHLNVTQINGNFYSQVFFPNKKTSNSSTPVI” it was “not soluble”; in that of “MGSDKIHHHHHHMARQNKRQSDDRELARKFEELLKEGTPGFFDVSVYESIIQYYLEGTKFRKAHRTCDIAMEQHPYSVEIMLLKVQVLMQMTQFEEALEILDRAQLYQPNDTDIQLLRANIMAQQDDFEGAIELLEEILTLAEEKDEIHYHMGVIYQDMGNFEESINHLKEAIMLNSQHEDAIYELSYSLEVLDRLEESIDFFKQLIEKDPYSHFAWFCLGVSYFKQGKLDEALDAYEFVIAINDKYSSAYYNIGECYVYKNEYEKALEYFFQTMDMEDKTADVFYNIGFCYEHLGMHPKAIEFYRKASKADAYFHEAYYGIGKCLEAQDKSYESIHFFKRALKLDEANAEYWLAKANAEYKTGNIISSLEAFEEACVLEPSNPEVWKNWSFVHYESGDMDKAIDLINAGIDEMPGNADLYYRAVAYLITAGRYKEAFNYLENALTLNFDSHTVLFEFFPKLETQKALFRIIDQYRNK”, “not soluble”; in that of “MGSDKIHHHHHHMAMEHVDVLIVGAGLSGIGAAYHLQKHCPGKTYAILEGREAIGGTWDLFRYPGIRSDSDMYTLGYSFKPWKAAKAIADGPSILDYVRETAREHDIDRHIRFQHLVKRASWSSETATWTVEAEHDGKPVTLTCRFLHMCSGYYRYSAGYTPDFAGTERFKGRIVHPQHWPEDLDYSGKKVVVIGSGATAVTLVPEMAKTAAHVTMLQRSPTYVVSRPAEDGIANWLRSKLPAMTAYGITRWKNVLFQLFFFNLARKKPEKVKERLLGMVRDHLGPGYDVETHFTPRYNPWDQRLCLVPDADLFDAIKSGAASVVTDHIETFTETGIQLKSGKTLDADVIVTATGLQLQLLSGMEVVVDGKVADLSQSMSYKGMMFSDVPNLASVFGYTNASWTLKADLTSEYVCRLLNHMDRTGADYCVPRLDGEVEAAPWLDFSSGYITRSIGHFPKQGTRKPWKVHQNYALDLMTLRMGKVEDGVMQFGRKTGATAKAKPEKALEPA”, “not soluble”.
The value for “MGSDKIHHHHHHMAGLERGELRQALLAEVKKVCAGQGPEAVSISKIGKSLGVSSGAPFRLFPSREHIFAALIESEMERLDATFERIWSCKTTDPVLRLTDICQAYVDHARTEPAMFRLAFSVSAKAMGAVKLQKIGEDVYEKVQRAVAACVPRHTTTDQVELKSYLLWSTIHGHVMLCMTGQMDDQSIDLPDEIVVASAVQGILKAG” was “not soluble”.
